This note sets out measurements from patent US6913892 (H LUNDBECK A S, dated 2005).

For experiment [1], the target named is T1, human Y4 receptor (human, UniProt P0DQD5 1-375). Kind of experiment: cell-based or functional assay.
Experiment [2] concerns the target T1, human Y4 receptor. Kind of experiment: 125I-PYY displacement, COS-7 membranes. As to the method: (§1) Data are representative of at least two independent experiments, with each point measured once or in duplicate.
(§2) Radioligand Binding to Membrane Suspensions: Membrane suspensions were diluted in binding buffer supplemented with 0.1% bovine serum albumin and 0.1% bacitracin to yield an optimal membrane protein concentration: ~0.02 mg/ml for human Y1 receptors, ~0.015 mg/ml for hp25a receptors, and ~0.25 mg/ml for SK-N-Be(2). […] Incubations were terminated by filtration over Whatman GF/C filters (pre-coated with 0.5% polyethyleneimine and air-dried before use). […] Binding data were analyzed using nonlinear regression and statistical techniques available in the GraphPAD InPlot package (San Diego, Calif.).

Experiment [3] deals with T1, human Y4 receptor. Kind of experiment: 125I-PYY displacement, COS-7 membranes. As to the method: as §2, with “Calif.). […] Whatman GF/C filters were from Brandel (Gaithersburg, Md.). Bio-Rad Reagent was from Bio-Rad (Hercules, Calif.). Bovine serum albumin and bacitracin were from Sigma (St. Louis, Mo.). All other materials were reagent grade.” for “Calif.).”
This is another data set of the same source.

In experiment [4] the target is T2, human Y1 receptor (human, UniProt P25929 1-384).
T2 construct: Transiently expressed in COS-7 cells; membranes used; also called cloned human Y1 receptor (Larhammar et al., 1992)
T2 sequence: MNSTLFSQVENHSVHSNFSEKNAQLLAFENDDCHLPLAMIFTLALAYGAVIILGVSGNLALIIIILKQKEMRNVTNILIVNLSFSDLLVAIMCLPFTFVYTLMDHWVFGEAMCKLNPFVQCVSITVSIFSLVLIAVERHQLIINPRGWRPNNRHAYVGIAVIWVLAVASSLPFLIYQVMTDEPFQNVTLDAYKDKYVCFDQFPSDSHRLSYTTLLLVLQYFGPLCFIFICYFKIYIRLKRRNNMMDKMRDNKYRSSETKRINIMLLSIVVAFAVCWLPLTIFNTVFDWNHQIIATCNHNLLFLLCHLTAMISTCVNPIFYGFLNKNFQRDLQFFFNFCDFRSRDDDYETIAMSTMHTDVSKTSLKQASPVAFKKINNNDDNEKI
Kind of experiment: 125I-PYY displacement, COS-7 membranes. As to the method: as §2, with “Calif.). […] Whatman GF/C filters were from Brandel (Gaithersburg, Md.). Bio-Rad Reagent was from Bio-Rad (Hercules, Calif.). Bovine serum albumin and bacitracin were from Sigma (St. Louis, Mo.). All other materials were reagent grade.” for “Calif.).”

Experiment [5] addresses T1, human Y4 receptor. Kind of experiment: 125I-PYY displacement, COS-7 membranes. This is another data set of the same source.
In the next experiment the target is T3, rat Y4 receptor (rat, UniProt Q63447 1-375).
T3 construct: Full-length receptor (375 aa) transiently expressed in COS-7 cells; membranes used; also called rs16b; rat Y4 homolog
Kind of experiment: 125I-PYY displacement, COS-7 membranes.

Experiment [6] deals with T1, human Y4 receptor. Kind of experiment: 125I-PYY displacement, COS-7 membranes (as in Table 3). Here is the method:
as §2, with “Calif.). […] Whatman GF/C filters were from Brandel (Gaithersburg, Md.). Bio-Rad Reagent was from Bio-Rad (Hercules, Calif.). Bovine serum albumin and bacitracin were from Sigma (St. Louis, Mo.). All other materials were reagent grade.” for “Calif.).”

Experiment [7] has as its target T1, human Y4 receptor. Kind of experiment: 125I-PYY displacement, COS-7 membranes. This is another data set of the same source.
Experiment [8] addresses T2, human Y1 receptor. Kind of experiment: 125I-PYY displacement, COS-7 membranes. Here is the method: as §1, §2
The source holds these as a separate data set.

Read-outs that look alike come from different tables or passages of the source. Where no end group is shown, it is not given here. A value given as a limit tells only on which side of the number the result lay.

The Ki is the equilibrium dissociation constant of an inhibitor or competing ligand from its target.

T3 sequence (Q63447 whole entry R262P): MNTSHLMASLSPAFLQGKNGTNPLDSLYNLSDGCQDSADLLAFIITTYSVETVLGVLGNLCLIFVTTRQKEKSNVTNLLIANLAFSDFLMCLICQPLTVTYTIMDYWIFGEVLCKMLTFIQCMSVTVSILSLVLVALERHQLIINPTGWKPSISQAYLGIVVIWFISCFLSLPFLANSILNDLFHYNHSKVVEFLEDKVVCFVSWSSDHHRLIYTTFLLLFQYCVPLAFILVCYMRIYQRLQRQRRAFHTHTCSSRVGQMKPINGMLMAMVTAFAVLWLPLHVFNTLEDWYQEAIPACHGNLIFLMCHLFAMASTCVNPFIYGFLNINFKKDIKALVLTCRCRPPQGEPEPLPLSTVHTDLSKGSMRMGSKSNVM
T1 sequence (P0DQD5 whole entry): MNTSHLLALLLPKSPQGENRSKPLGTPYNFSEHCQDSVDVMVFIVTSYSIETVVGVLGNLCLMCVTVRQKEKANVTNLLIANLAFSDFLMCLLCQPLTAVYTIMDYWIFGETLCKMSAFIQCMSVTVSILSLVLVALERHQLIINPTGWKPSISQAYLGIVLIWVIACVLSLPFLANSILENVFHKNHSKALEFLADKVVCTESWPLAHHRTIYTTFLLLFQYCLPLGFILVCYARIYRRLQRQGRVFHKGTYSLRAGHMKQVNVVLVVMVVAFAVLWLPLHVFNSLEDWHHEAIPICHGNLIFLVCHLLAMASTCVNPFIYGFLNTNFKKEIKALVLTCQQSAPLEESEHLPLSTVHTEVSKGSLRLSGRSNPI

B1: PP2-36, human (peptide, UniProt P01298 31-65, looked up)
peptide: PLEPVYPGDNATPEQMAQYAADLRRYINMLTRPRY-NH2
With B1, in the experiment with human Y4 receptor [1], the “EC50, inhibition of forskolin-stimulated cAMP accumulation, LM(tk-) cells” value (from here on “EC50, inhibition”) stood at 0.08 nM.

B2: porcine PYY13-36 (peptide, UniProt P68005 13-36, looked up)
peptide: SPEELSRYYASLRHYLNLVTRQRY-NH2
notes: range 13-36; also called PYY13-36, porcine
For B2, affinity with human Y4 receptor [2] was put at a Ki of 47 nM.

B3: PP, rat (peptide, UniProt P06303 30-65, looked up)
peptide: APLEPMYPGDYATHEQRAQYETQLRRYINTLTRPRY-NH2
notes: mature; also called rat PP
Regarding B3, the inhibitory constant (Ki) in the experiment with human Y4 receptor [3] came out at 0.18 nM; with human Y1 receptor [4], 460 nM; in the experiment with human Y4 receptor [5], 0.18 nM; in the experiment with rat Y4 receptor it was 0.2 nM.

B4: PP13-36, human (peptide, UniProt P01298 42-65, looked up)
peptide: TPEQMAQYAADLRRYINMLTRPRY-NH2
notes: range 13-36
As to B4, the “EC50, inhibition” value with human Y4 receptor [1] was determined as 580 nM. For the same molecule, the Ki in the experiment with human Y4 receptor [3] and with human Y4 receptor [6] was 39 nM throughout.

B5: human pancreatic polypeptide (peptide, UniProt P01298 30-65, looked up)
peptide: APLEPVYPGDNATPEQMAQYAADLRRYINMLTRPRY-NH2
notes: mature; also called human PP; PP, human
B5: the “EC50, inhibition” value with human Y4 receptor [1] was 0.09 nM. Further, the Ki with human Y4 receptor [7] was found to be 0.02 nM; with rat Y4 receptor it was 0.12 nM.

B6: [Ile^31, Gln^34]PP, human (peptide, UniProt P01298 30-65, looked up)
peptide: APLEPVYPGDNATPEQMAQYAADLRRYINMITRQRY-NH2
notes: mature
Take B6: the “EC50, inhibition” value in the experiment with human Y4 receptor [1] came out at 0.27 nM. In addition, the Ki with human Y4 receptor [3] and with human Y4 receptor [6] was 0.09 nM in each case.

B7: PP, bovine (peptide, UniProt P01302 30-65, looked up)
peptide: APLEPEYPGDNATPEQMAQYAAELRRYINMLTRPRY-NH2
notes: mature; also called bovine PP
As to B7, the Ki in the experiment with human Y4 receptor [3] amounted to 0.05 nM; in the experiment with human Y1 receptor [4], 240 nM; in the experiment with human Y4 receptor [5], 0.05 nM; with rat Y4 receptor, 0.15 nM.

B8: PP31-36, human (peptide, UniProt P01298 60-65, looked up)
peptide: LTRPRY-NH2
notes: range 60-65; also called human PP31-36
Turning to B8, the “EC50, inhibition” value with human Y4 receptor [1] stood at 89000 nM. In addition, the Ki in the experiment with human Y4 receptor [3] is 350 nM; with human Y4 receptor [5], 350 nM; in the experiment with rat Y4 receptor it was 20 nM; with human Y4 receptor [6], over 10000 nM.

B9: PP27-36, human (peptide, UniProt P01298 56-65, looked up)
peptide: YINMLTRPRY-NH2
notes: range 27-36
B9: in the experiment with human Y4 receptor [1], the “EC50, inhibition” value is 3500 nM. The Ki with human Y4 receptor [6] is over 88 nM.

B10: Phe-Met-Arg-Phe-Amide (peptide)
peptide: FMRF-NH2
notes: Tetrapeptide invertebrate neurotransmitter; also called FMRF-amide; FMRFamide
As for B10, affinity with human Y4 receptor [3] was put at a Ki of 4000 nM.

B11: human neuropeptide Y (peptide)
peptide: not shown
modifications: C-terminal amide
With B11, in the experiment with human Y4 receptor [1], the “EC50, inhibition” value worked out at 20 nM.

B12: human peptide YY (peptide)
peptide: not shown
modifications: C-terminal amide
notes: mature; also called human PYY; PYY, human
B12: the “EC50, inhibition” value with human Y4 receptor [1] was 47 nM. Besides, the values for the Ki in the experiment with human Y4 receptor [2], with human Y1 receptor [8] and with human Y1 receptor [4] were 0.62 nM, 0.085 nM and 0.19 nM, respectively.
